Laboratory results from patent US20240400657A1 (MorphoSys, published 2024).

T1: human C5aR_NT-bio peptide (human, biotin tag (position not given))
T1 construct: Chemically synthesized linear peptide (Genscript); also called human C5aR N-terminal peptide; human C5aR peptide
T1 peptide: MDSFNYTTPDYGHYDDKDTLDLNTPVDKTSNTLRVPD

T2: full length cynomolgus C5aR stably expressed on CHO Flp-In cells (cynomolgus monkey (Macaca fascicularis))
T2 chain: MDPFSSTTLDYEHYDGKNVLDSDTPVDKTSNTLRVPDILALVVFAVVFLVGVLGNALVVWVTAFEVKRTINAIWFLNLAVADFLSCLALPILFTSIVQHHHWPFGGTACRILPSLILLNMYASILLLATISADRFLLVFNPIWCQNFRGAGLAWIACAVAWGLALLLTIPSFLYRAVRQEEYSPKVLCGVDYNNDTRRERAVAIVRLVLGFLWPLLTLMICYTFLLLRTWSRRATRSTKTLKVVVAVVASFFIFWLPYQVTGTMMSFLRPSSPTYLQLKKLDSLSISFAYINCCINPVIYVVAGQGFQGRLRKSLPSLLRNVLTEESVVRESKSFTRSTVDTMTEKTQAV

T3: C5aR expressed on purified human neutrophils (human, UniProt P21730 1-350)
T3 sequence (looked up): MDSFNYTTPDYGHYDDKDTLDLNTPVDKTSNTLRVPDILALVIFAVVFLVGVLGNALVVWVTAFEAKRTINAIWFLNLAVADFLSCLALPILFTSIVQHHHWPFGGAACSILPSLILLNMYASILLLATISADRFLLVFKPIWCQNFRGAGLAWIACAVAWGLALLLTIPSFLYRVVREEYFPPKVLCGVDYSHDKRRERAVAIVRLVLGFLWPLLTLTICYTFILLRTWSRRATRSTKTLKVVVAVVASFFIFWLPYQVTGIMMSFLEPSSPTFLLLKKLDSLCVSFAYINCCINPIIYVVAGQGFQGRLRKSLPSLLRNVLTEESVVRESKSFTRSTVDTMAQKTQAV

T4: full length human C5aR stably expressed on CHO Flp-In cells (human, UniProt P21730 1-350)
T4 construct: also called human C5aR expressed on CHO cells
T4 sequence: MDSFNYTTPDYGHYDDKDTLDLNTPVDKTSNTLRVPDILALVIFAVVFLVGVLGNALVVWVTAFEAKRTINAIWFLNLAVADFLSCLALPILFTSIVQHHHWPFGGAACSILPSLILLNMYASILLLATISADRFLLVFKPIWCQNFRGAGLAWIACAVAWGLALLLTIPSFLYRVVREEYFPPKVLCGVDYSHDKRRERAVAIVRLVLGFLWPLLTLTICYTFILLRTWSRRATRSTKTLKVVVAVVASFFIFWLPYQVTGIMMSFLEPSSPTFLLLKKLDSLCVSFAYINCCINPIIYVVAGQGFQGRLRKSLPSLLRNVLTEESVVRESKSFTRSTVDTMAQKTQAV


Legend:
[1] = biological target: T1, human C5aR_NT-bio peptide; test: BLI (Octet), apparent (bivalent)
[2] = biological target: T5, HIS6-mouse C5aR-HV1B1-GAG (mouse); test: ELISA on coated VLPs, IgG titration
T5 construct: negative control; also called murine C5aR on VLPs; mouse C5aR expressed on virus-like-particles

[3] = biological target: T6, Cynomolgus FcRn p51 [1-297]_AviHis/p14 biotinylated (cynomolgus monkey, UniProt Q8SPV9 24-298; Q6T672 21-119, biotinylated in vitro with BirA (Avi tag)); test: BLI (Octet HTX), biotinylated FcRn on SA sensors, IgG titrated, steady state fit, apparent KD, pH 6.0; * deviation from fit model; pH 6.0
T6 construct: Heterodimer; UniProt Q8SPV9 (p51)
Text: (§1) 0.5 nm of biotinylated human, cynomolgus, mouse and rat FcRn were captured on streptavidin (SA) sensors (FortéBIO, Pall Life Sciences). […] All sensorgrams were fitted using Data Analysis Software 10.0 (FortéBIO, Pall Life Sciences) to determine the apparent affinity and the data was fitted with a steady state model.

[4] = biological target: T2, full length cynomolgus C5aR stably …; test: KinExA on Flp-In CHO cells
Experimental: (§2) Apparent KD determination on C5aR-expressing cells was performed at RT with a KinExA® 3200 instrument (Sapidyne Instruments). PBS (Gibco), supplemented with BSA (1 mg/mL) and 0.02% (v/v) NaN₃ was used as assay buffer. […] After equilibration, the samples were centrifuged and the supernatants were used for analysis. […] The apparent KD was obtained using KinExA® software and by “n-curve analysis,” which fits all of the given curves to a single KD value simultaneously.

[5] = biological target: T3, C5aR expressed on purified human …; test: cell-based or functional assay
[6] = biological target: T3, C5aR expressed on purified human …; test: cell-based or functional assay; remark: listed apart in the source
[7] = biological target: T5, HIS6-mouse C5aR-HV1B1-GAG; test: ELISA, coated VLPs expressing mC5aR, IgG titration, AttoPhos fluorescence
[8] = biological target: T4, full length human C5aR stably expressed …; test: KinExA, MAB #1 as analyte, Flp-In CHO cells as titrant, apparent (bivalent) KD, n-curve analysis
Experimental: as §2

[9] = biological target: T2, full length cynomolgus C5aR stably …; test: as above
Experimental: as §2

[10] = biological target: T6, Cynomolgus FcRn p51 [1-297]_AviHis/p14 …; test: BLI (Octet HTX), biotinylated FcRn on SA sensors, IgG titrated, steady state fit, apparent KD, pH 6.0; * deviation from fit model
Text: as §1

[11] = biological target: T6, Cynomolgus FcRn p51 [1-297]_AviHis/p14 …; test: BLI (Octet HTX), biotinylated FcRn on SA sensors, IgG titrated, steady state fit, apparent KD, pH 7.2; ** slight binding at pH 7.2
Text: as §1

| Binder | fold weaker binding affinity compared to MAB #1 [1] | binding result [2] | Kd [3] | fold weaker binding than to full-length human C5aR [4] | Inhibition of CD11b expression, granulocytes in whole blood, 15 nM C5a: IC50 [5] | Inhibition of CD11b expression, monocytes in whole blood, 15 nM C5a: IC50 [5] | CD11b assay, granulocytes, 15 nM C5a, 20 minutes of IgG incubation: IC50 [6] | CD11b assay, granulocytes, 15 nM C5a, 300 minutes of IgG incubation: IC50 [6] | CD11b assay, granulocytes: x-fold improvement (20 min. vs 300 min.) [6] | CD11b assay, monocytes, 15 nM C5a, 20 minutes of IgG incubation: IC50 [6] | CD11b assay, monocytes, 15 nM C5a, 300 minutes of IgG incubation: IC50 [6] | CD11b assay, monocytes: x-fold improvement (20 min. vs 300 min.) [6] | binding result [7] | Kd [8] | Kd [9] | Kd [10] | Kd [11] |
| --- | --- | --- | --- | --- | --- | --- | --- | --- | --- | --- | --- | --- | --- | --- | --- | --- | --- |
| MAB #2 (antibody, human IgG1, lambda, lambda 1 light chain) heavy: EVQLVESGGGLVKPGGSLRLSCAASGFTFSSYAMHWVRQAPGKGLEWVGRIKSVAQGGTTDYAAHVKGRFTISRDDSKNTLYLQMNSLKTEDTAVYYCARVSHSTFDVWGQGTLVTVSSASTKGPSVFPLAPSSKSTSGGTAALGCLVKDYFPEPVTVSWNSGALTSGVHTFPAVLQSSGLYSLSSVVTVPSSSLGTQTYICNVNHKPSNTKVDKRVEPKSCDKTHTCPPCPAPEAEGAPSVFLFPPKPKDTLMISRTPEVTCVVVDVSHEDPEVKFNWYVDGVEVHNAKTKPREEQYNSTYRVVSVLTVLHQDWLNGKEYKCKVSNKALPSSIEKTISKAKGQPREPQVYTLPPSREEMTKNQVSLTCLVKGFYPSDIAVEWESNGQPENNYKTTPPVLDSDGSFFLYSKLTVDKSRWQQGNVFSCSVMHEALHNHYTQKSLSLSPGK light: not shown | ~10 fold | no binding | 30 nM |  |  |  |  |  |  |  |  |  |  |  |  |  |  |
| MAB #1 (antibody, human IgG1, lambda, lambda 1 light chain, VH3-15 framework) heavy: EVQLVESGGGLVKPGGSLRLSCAASGFTFSSYAMHWVRQAPGKGLEWVGRIKSKAQGGTTDYAAHVKGRFTISRDDSKNTLYLQMNSLKTEDTAVYYCARVSFSTFDVWGQGTLVTVSSASTKGPSVFPLAPSSKSTSGGTAALGCLVKDYFPEPVTVSWNSGALTSGVHTFPAVLQSSGLYSLSSVVTVPSSSLGTQTYICNVNHKPSNTKVDKRVEPKSCDKTHTCPPCPAPEAEGAPSVFLFPPKPKDTLMISRTPEVTCVVVDVSHEDPEVKFNWYVDGVEVHNAKTKPREEQYNSTYRVVSVLTVLHQDWLNGKEYKCKVSNKALPSSIEKTISKAKGQPREPQVYTLPPSREEMTKNQVSLTCLVKGFYPSDIAVEWESNGQPENNYKTTPPVLDSDGSFFLYSKLTVDKSRWQQGNVFSCSVMHEALHNHYTQKSLSLSPGK light: not shown |  |  |  | ~20 fold | 9.8 nM | 4.2 nM | 11 nM | 2.3 nM | 4.8 fold | 4 nM | 0.7 nM | 5.7 fold | no binding (tested: ~300 nM) | 0.13 nM | 2.98 nM | 6.8 nM | 560 nM |
